The source of these data is article PMC7340788, “Structure of the yeast Swi/Snf complex in a nucleosome free state” (Nature Communications, 2020).

The labels stand for the following.
B1: Swi3 (natural protein, S. cerevisiae, UniProt P32591 1-825, looked up)
chain: MENTLGEGSTVNASVDVDQHGNDNNSDSNANAAVAGVANTDTAGEESQQQDESLKDEATVPNTRDAESEAITVTAKQQPTMQANKLDSQETPSTEESRAQNVFGQDNEDSDNLFGETESSVSNNEANTPSIPTNPVDNENNKPAIKEDSTIQDSNGDVKNMEDVKIQKEEEPENNTVIEGVKEESQPDENTKEMDEVEEDDEDDDQPMISPDNSIFGDTKSESKQLGNTSSVANTPSEIPDAHKAEQEDIIEKTESVDKKVDSGEERNEQEREIMNDHSKSANPKKTTITRVEPETFEIPQAHEIVIPSYSKWFNLEKIHSIEVQSLPEFFTNRIPSKTPEVYMRYRNFMVNSYRLNPNEYFSVTTARRNVSGDAAALFRLHKFLTKWGLINYQVDSKLLPKNIEPPLTSQYSTRHDAPRGLFPFESYKPSVQLPDMAKLKKMMNTSDSESTLYKYLKESKRKYDEITHPPSTTDDENGDKNDNGGKMNNEVSTSTSMTGDANLLEEGETSRPLKKVKILEQIDENWSKEDLQKLLKGIQEFGADWYKVAKNVGNKSPEQCILRFLQLPIEDKFLYGDGNGKGDNDNGLGPLKYAPHLPFSKSENPVLSTIAFLVGLVNPKTVQSMTQRAIQSAESIKSQKEEISDQKPIEHIKEGSEIAISSLGYRSHIFATNEERQMNFLTNELIRLQMEKLDAKLNHLKKLEKFMELERKTLERQQENLLIQRLNFNQNSSKIVNVLSKCLNLISDSNINNSSVAEKEEIRSQIDHFKSMLSKPETLSIGKNPFNKPNIETGENHNGQSISNENDVKPISIEAPQFYRYWSA
notes: Swi3, subunit of the S. cerevisiae Swi/Snf complex; endogenous protein; two copies (chains A and B) in the model; also called Swi3A; Swi3B; source: endogenous, S. cerevisiae; purified as part of the Swi/Snf complex through Snf6-3Flag (ANTI-FLAG M2 resin, Superose 6)

Assay in all cases: cryo-EM structure; endogenous Swi/Snf complex purified as a whole through Snf6-3Flag, nucleosome-free, cross-linked with 1 mM BS3, 20 mM HEPES pH 7.4, 350 mM NaCl; 4.1 Å average, 2.9 Å for the base module
One data set has as its target T1, Swi1 (S. cerevisiae, UniProt P09547 1-1314).
T1 construct: Swi1, subunit of the S. cerevisiae Swi/Snf complex; endogenous protein; Only part of the chain is modelled (C-terminus with seven ARM repeats, α1, β1); For cryo-EM the complex was cross-linked with 1 mM BS3; source: endogenous, S. cerevisiae; purified as part of the Swi/Snf complex through Snf6-3Flag (ANTI-FLAG M2 resin, Superose 6)
T1 sequence (looked up): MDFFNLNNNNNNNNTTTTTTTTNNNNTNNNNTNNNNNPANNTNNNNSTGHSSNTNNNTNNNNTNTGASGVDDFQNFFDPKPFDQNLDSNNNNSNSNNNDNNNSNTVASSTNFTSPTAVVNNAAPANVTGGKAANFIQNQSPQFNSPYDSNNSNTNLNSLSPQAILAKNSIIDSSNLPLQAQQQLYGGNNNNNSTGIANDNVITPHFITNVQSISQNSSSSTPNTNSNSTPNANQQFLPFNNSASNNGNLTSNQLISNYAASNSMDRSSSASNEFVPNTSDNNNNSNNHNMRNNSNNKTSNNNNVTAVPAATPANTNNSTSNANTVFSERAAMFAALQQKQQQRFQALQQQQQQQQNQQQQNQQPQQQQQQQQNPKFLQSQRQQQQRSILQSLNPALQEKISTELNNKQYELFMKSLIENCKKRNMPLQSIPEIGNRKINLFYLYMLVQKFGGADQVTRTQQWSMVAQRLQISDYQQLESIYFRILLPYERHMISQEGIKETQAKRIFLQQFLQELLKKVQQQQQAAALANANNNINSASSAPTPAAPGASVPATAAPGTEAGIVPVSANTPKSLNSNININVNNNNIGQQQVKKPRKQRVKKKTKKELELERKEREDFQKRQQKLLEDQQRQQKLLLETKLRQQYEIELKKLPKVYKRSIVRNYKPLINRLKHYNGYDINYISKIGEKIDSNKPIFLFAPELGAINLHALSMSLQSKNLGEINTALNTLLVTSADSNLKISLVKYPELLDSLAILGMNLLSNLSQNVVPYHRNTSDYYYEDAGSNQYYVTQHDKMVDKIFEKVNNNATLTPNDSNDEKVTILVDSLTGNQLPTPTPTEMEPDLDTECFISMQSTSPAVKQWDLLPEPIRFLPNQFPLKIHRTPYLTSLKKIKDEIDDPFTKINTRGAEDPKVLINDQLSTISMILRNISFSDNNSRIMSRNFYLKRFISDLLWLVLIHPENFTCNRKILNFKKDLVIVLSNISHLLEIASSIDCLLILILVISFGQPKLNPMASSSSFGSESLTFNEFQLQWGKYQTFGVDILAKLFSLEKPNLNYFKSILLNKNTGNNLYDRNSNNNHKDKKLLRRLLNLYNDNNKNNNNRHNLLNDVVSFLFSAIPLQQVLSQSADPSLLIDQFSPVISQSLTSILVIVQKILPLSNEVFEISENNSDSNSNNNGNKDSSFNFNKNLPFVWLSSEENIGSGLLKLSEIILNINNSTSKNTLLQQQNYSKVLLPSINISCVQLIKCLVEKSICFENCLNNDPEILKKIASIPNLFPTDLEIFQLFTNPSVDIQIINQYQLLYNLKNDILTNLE
The settings on record: both partners purified.

For another data set, the target named is T2, Snf5 (S. cerevisiae, UniProt P18480 1-905).
T2 construct: Snf5, subunit of the S. cerevisiae Swi/Snf complex; endogenous protein; For cryo-EM the complex was cross-linked with 1 mM BS3; source: endogenous, S. cerevisiae; purified as part of the Swi/Snf complex through Snf6-3Flag (ANTI-FLAG M2 resin, Superose 6)
T2 sequence (P18480 whole entry): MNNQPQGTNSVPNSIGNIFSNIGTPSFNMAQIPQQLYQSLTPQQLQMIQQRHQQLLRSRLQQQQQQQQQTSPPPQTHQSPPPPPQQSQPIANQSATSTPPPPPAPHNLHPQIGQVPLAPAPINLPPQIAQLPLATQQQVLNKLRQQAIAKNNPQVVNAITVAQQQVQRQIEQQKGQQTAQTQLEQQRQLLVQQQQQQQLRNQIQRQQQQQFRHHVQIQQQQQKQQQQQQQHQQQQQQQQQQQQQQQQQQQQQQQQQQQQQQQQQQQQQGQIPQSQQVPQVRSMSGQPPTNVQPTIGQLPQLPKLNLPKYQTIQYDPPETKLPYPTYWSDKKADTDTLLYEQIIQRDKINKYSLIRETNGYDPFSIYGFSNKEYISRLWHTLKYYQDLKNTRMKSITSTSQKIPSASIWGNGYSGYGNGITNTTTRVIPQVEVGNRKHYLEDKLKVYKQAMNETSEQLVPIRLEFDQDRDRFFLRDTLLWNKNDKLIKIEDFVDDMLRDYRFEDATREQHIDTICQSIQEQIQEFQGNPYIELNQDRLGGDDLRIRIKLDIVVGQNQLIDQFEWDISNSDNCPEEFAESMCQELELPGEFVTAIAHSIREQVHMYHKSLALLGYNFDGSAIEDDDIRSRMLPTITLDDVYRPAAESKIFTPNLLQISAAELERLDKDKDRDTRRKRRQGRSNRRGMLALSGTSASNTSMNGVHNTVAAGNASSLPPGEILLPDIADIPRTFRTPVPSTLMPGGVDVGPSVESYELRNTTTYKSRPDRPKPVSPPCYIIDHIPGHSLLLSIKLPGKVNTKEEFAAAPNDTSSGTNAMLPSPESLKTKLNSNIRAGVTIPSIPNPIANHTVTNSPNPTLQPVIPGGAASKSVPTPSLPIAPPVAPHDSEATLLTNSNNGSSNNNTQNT
The settings on record: both partners purified.

A further data set has as its target T3, Snf2 (S. cerevisiae, UniProt P22082 1-1703).
T3 construct: Snf2, ATPase-containing subunit of the S. cerevisiae Swi/Snf complex; endogenous protein; Only the preHSA domain and the HSA helix are seen in the map; the ATPase domain is absent from the structure; For cryo-EM the complex was cross-linked with 1 mM BS3; source: endogenous, S. cerevisiae; purified as part of the Swi/Snf complex through Snf6-3Flag (ANTI-FLAG M2 resin, Superose 6)
Particulars: both partners purified.

Data set [1] concerns the molecule itself.
The target in the data set “Swi3” is B1. Particulars: both partners purified.

T3 sequence (P22082 whole entry, the tested form may be a part): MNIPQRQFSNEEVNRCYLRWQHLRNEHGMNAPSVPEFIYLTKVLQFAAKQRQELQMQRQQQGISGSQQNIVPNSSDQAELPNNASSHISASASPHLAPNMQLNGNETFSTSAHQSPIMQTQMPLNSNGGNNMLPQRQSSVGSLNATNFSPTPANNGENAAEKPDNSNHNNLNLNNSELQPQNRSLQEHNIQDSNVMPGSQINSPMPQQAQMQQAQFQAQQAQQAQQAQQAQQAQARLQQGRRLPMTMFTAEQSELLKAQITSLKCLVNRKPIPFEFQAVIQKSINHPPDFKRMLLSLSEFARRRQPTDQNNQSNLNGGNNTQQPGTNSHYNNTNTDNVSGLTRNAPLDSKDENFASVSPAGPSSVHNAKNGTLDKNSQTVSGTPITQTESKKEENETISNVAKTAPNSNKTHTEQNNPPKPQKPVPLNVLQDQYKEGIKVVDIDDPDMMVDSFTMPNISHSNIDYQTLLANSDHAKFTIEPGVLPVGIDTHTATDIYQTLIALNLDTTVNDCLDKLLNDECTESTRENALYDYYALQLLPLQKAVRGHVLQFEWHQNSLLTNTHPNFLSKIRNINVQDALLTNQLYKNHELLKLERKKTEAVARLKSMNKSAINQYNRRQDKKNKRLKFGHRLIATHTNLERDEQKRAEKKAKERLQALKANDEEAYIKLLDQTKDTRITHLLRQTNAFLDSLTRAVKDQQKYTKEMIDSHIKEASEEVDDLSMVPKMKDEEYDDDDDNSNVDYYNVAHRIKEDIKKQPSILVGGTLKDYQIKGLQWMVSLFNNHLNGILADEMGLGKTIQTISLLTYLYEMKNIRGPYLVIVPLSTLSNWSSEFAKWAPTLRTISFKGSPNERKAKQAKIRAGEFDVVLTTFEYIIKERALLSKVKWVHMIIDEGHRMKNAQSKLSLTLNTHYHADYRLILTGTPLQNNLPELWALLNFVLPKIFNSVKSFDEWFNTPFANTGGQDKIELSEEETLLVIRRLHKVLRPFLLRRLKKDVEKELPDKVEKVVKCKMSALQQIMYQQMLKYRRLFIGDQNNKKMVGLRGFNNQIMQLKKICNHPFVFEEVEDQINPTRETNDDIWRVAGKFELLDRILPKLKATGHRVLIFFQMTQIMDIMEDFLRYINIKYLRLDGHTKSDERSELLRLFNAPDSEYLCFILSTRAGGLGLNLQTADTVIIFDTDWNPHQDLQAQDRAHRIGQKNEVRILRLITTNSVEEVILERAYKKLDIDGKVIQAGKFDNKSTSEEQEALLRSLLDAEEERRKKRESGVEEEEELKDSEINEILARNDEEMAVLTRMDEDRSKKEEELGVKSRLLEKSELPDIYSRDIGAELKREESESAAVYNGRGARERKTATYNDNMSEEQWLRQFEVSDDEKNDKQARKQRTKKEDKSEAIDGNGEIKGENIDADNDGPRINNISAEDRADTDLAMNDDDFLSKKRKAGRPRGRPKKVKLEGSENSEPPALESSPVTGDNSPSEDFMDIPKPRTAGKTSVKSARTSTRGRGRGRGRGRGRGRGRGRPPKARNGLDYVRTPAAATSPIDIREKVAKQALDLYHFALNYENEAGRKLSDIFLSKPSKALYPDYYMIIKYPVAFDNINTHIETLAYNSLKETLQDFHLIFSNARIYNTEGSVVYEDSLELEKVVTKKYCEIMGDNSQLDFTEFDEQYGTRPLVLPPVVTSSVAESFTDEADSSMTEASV

Turning to B1, the binding result with Swi1, in the data set with Snf5 and in the data set with Snf2 was “binds” throughout. In addition, the “stoichiometry N” value in data set [1] amounted to 2.

B2: Swp82 (natural protein, S. cerevisiae, UniProt P43554 1-623, looked up)
chain: MLGEDEGNTVLEKGNNPSVKQGEVGAVFIVPKILIREHERVILKQILQILDQDELVQPPLDKFPYKKLELPKYIDELKTRDATNTSYKMIQLDAYGEKKVGSNGELFGGRHYLFNTFTFTAHMGVLLVLLQDVIKVLYQSNATHDEDEFIVQHDQILVMETSEEQTKFLAKNGVIPEESKGSFKYITARSAFVEFGASVIAGGQRIVDDYWESLAKKQNLSSHQRVFKLSTNLISKISLLRPSFQNNRISNANEISANTNNTCTISTSKFESQYPIVTEQPSAEIREAYIENFAKGEHISAIVPGQSISGTLELSAQFRVPRYHSKNSFQQALQMKAMDIPIGRHEELLAQYESQAPDGSASISLPNHIPSVNPSNKPIKRMLSSILDINVSSSKNKKSEENEMIKPMNKGQHKNNTSLNINGWKFESLPLKSAENSGKQQYYRGLPLYEKNTLLERLKQLTPNEIKELEHLHDAVFVNTGLQNVRKVRTKKWKKYWQYKAGIPIGLKRSQLDEFKNKYLKDVLAQTSVTTNFNEITNTDETITTKRVPNPNFLGNCNIKDFKPPYIYSHVNKVPQNVAGDKTAVKLDTEVKNTNANPVVATDPVAAKPDNLANFSNEVAMNN
notes: Swp82, subunit of the S. cerevisiae Swi/Snf complex; endogenous protein; For cryo-EM the complex was cross-linked with 1 mM BS3; source: endogenous, S. cerevisiae; purified as part of the Swi/Snf complex through Snf6-3Flag (ANTI-FLAG M2 resin, Superose 6)
Regarding B2, the binding result with Swi3, with Snf5 and with Snf2 was “binds” each time.

The stoichiometry N is a count of units in the complex or per binding partner.
